# Results: the supplement of paper PMC9732359
# ± gives the uncertainty stated by the source.
# Test: protein stability index of a GFP-peptide fusion (yeast GPS) (PSI 1-4); higher = more stable; sorted into four equal gates, so the index is relative within each strain
# How it was run: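 Each library plasmid carries Cherry plus GFP with a tiled 17-residue yeast protein peptide fused downstream, and the pooled library was carried in yeast. Mid-log cultures in leucine-free medium were sorted into four equal gates by GFP/Cherry ratio. Reads from Illumina sequencing of PCR-amplified plasmids from each gate were assigned to strains by barcodes. Per peptide, the protein stability index was computed as the summed products of gate read frequency and gate number.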
sequence,measurement,setting,value
MGVPIYGIVAMAATATD [FAS2],protein stability index,doa10∆,1.34 ± 0.068
same,protein stability index,pdr5∆,1.52 ± 0.052
same,protein stability index,san1∆,1.54 ± 0.089
same,protein stability index,ubr1∆,1.47 ± 0.051
DFQIDGNIFELLSDTFE [RRI2],protein stability index,doa10∆,2.04 ± 0.095
same,protein stability index,pdr5∆,2.47 ± 0.077
same,protein stability index,san1∆,2.95 ± 0.11
same,protein stability index,ubr1∆,3.16 ± 0.17
EAMLRENIEVILSNGRM [SNF12],protein stability index,doa10∆,2.79 ± 0.063
same,protein stability index,pdr5∆,2.82 ± 0.061
same,protein stability index,san1∆,2.86 ± 0.046
same,protein stability index,ubr1∆,2.75 ± 0.059
SVDDVLSALDHIGHSAL [DPB4],protein stability index,doa10∆,3.26 ± 0.2
same,protein stability index,pdr5∆,3.53 ± 0.18
same,protein stability index,san1∆,3.27 ± 0.083
same,protein stability index,ubr1∆,3.46 ± 0.069
SVDESARIKDAFITQLE [YJL039C/NUP192],protein stability index,doa10∆,3.03 ± 0.12
same,protein stability index,pdr5∆,2.61 ± 0.17
same,protein stability index,san1∆,2.9 ± 0.16
same,protein stability index,ubr1∆,2.87 ± 0.11
ELYEVDVLKVNTLVRPN [RPL25],protein stability index,doa10∆,2.52 ± 0.095
same,protein stability index,pdr5∆,2.67 ± 0.099
same,protein stability index,san1∆,2.72 ± 0.12
same,protein stability index,ubr1∆,2.87 ± 0.088
LCYMAPMTVKLVQLPKS [POP3],protein stability index,doa10∆,2.37 ± 0.065
same,protein stability index,pdr5∆,2.23 ± 0.063
same,protein stability index,san1∆,2.39 ± 0.06
same,protein stability index,ubr1∆,2.76 ± 0.065
QLEYKRGEIREIEQVCK [MED7],protein stability index,doa10∆,1.49 ± 0.11
same,protein stability index,pdr5∆,1.53 ± 0.069
same,protein stability index,san1∆,2.2 ± 0.18
same,protein stability index,ubr1∆,1.45 ± 0.07
VTSMEAAREKKIRELEA [YIL149C/MLP2],protein stability index,doa10∆,2.97 ± 0.072
same,protein stability index,pdr5∆,2.9 ± 0.1
same,protein stability index,san1∆,2.92 ± 0.07
same,protein stability index,ubr1∆,2.86 ± 0.063
VTNDLDTSAEKDQIQAG [SIR4],protein stability index,doa10∆,3.32 ± 0.12
same,protein stability index,pdr5∆,3.36 ± 0.12
same,protein stability index,san1∆,3.28 ± 0.11
same,protein stability index,ubr1∆,3.21 ± 0.073
RLNPYAKVFAAEKLGSK [RPL4A],protein stability index,doa10∆,2.09 ± 0.14
RRSLKKQGRIKNATEEL [CSN12],protein stability index,doa10∆,3.2 ± 0.098
same,protein stability index,pdr5∆,3.56 ± 0.083
same,protein stability index,san1∆,3.37 ± 0.086
same,protein stability index,ubr1∆,3.57 ± 0.066
SNSDNCPEEFAESMCQE [SNF5],protein stability index,doa10∆,3.25 ± 0.065
same,protein stability index,pdr5∆,3.33 ± 0.069
same,protein stability index,san1∆,3.27 ± 0.041
same,protein stability index,ubr1∆,3.01 ± 0.068
LVSVTSTLQHFQETLDS [MED8],protein stability index,doa10∆,2.4 ± 0.055
same,protein stability index,pdr5∆,2.7 ± 0.063
same,protein stability index,san1∆,2.43 ± 0.054
same,protein stability index,ubr1∆,2.39 ± 0.048
NVTQNEQQWITRAQYLA [SRP68],protein stability index,doa10∆,1.42 ± 0.08
same,protein stability index,pdr5∆,1.54 ± 0.072
same,protein stability index,san1∆,1.19 ± 0.13
same,protein stability index,ubr1∆,1.28 ± 0.064
ASEVATHSKLFADKKRD [PRP8],protein stability index,doa10∆,2.51 ± 0.063
same,protein stability index,pdr5∆,2.69 ± 0.073
same,protein stability index,san1∆,2.31 ± 0.079
same,protein stability index,ubr1∆,2.56 ± 0.068
TRSWRPPQAGDRSLADD [RPB8],protein stability index,doa10∆,3.1 ± 0.11
same,protein stability index,pdr5∆,3.09 ± 0.16
same,protein stability index,san1∆,3.32 ± 0.13
same,protein stability index,ubr1∆,3.21 ± 0.11
GTAGGNTFGSSSLFNNS [YJL041W/NSP1],protein stability index,doa10∆,3.2 ± 0.073
same,protein stability index,pdr5∆,3.09 ± 0.06
same,protein stability index,san1∆,3.12 ± 0.055
same,protein stability index,ubr1∆,3.21 ± 0.059
EYEEWQKSVSLLSSESN [YDL116W/NUP84],protein stability index,doa10∆,2.93 ± 0.055
same,protein stability index,pdr5∆,3.02 ± 0.077
same,protein stability index,san1∆,2.84 ± 0.053
same,protein stability index,ubr1∆,2.73 ± 0.054
RANLRKYREGQVLFQGL [POP1],protein stability index,doa10∆,2.83 ± 0.095
same,protein stability index,pdr5∆,2.31 ± 0.071
same,protein stability index,san1∆,2.02 ± 0.088
same,protein stability index,ubr1∆,2.96 ± 0.063
GQQTAQPQQSTIGGGLF [YGR119C/NUP57],protein stability index,doa10∆,2.88 ± 0.072
same,protein stability index,pdr5∆,3.19 ± 0.052
same,protein stability index,san1∆,2.93 ± 0.053
same,protein stability index,ubr1∆,3.28 ± 0.067
KKDVEKELPDKVEKVVK [SNF2],protein stability index,doa10∆,3.52 ± 0.23
same,protein stability index,pdr5∆,3.47 ± 0.14
same,protein stability index,san1∆,3.39 ± 0.099
same,protein stability index,ubr1∆,3.34 ± 0.089
DEAKDFIVSGTASDQLF [PUP3],protein stability index,doa10∆,2.74 ± 0.089
same,protein stability index,pdr5∆,2.83 ± 0.07
same,protein stability index,san1∆,2.57 ± 0.096
same,protein stability index,ubr1∆,2.92 ± 0.076
YKLGKVKKVQLGKKGVP [RPS4A],protein stability index,doa10∆,2.85 ± 0.14
same,protein stability index,pdr5∆,2.98 ± 0.16
same,protein stability index,san1∆,3.19 ± 0.049
same,protein stability index,ubr1∆,2.94 ± 0.11
QSYFSQLKFEGFALNSD [BRR2],protein stability index,doa10∆,1.35 ± 0.05
same,protein stability index,pdr5∆,1.26 ± 0.045
same,protein stability index,san1∆,1.17 ± 0.094
same,protein stability index,ubr1∆,1.43 ± 0.04
NINSTDKSIDTSSLQLY [YML103C/NUP188],protein stability index,doa10∆,2.98 ± 0.099
same,protein stability index,pdr5∆,2.67 ± 0.14
same,protein stability index,san1∆,3.11 ± 0.049
same,protein stability index,ubr1∆,3.25 ± 0.07
TRIKLLLTKNVSCYRPR [RPS6A],protein stability index,doa10∆,2.11 ± 0.22
same,protein stability index,pdr5∆,2.64 ± 0.14
same,protein stability index,san1∆,2.88 ± 0.11
same,protein stability index,ubr1∆,2.94 ± 0.17
SVLLQQLLTPGSKISSN [YGL172W/NUP49],protein stability index,doa10∆,2.46 ± 0.093
same,protein stability index,pdr5∆,2.83 ± 0.089
same,protein stability index,san1∆,3.09 ± 0.099
same,protein stability index,ubr1∆,2.56 ± 0.14
KKAFTSYDRTLLIADSR [RPS16A],protein stability index,doa10∆,2.25 ± 0.044
same,protein stability index,pdr5∆,2.48 ± 0.073
same,protein stability index,san1∆,1.9 ± 0.079
same,protein stability index,ubr1∆,2.24 ± 0.059
MAKCLDNPDQGISDMCR [YCS4],protein stability index,doa10∆,3.39 ± 0.19
same,protein stability index,pdr5∆,3.55 ± 0.13
same,protein stability index,san1∆,3.33 ± 0.13
same,protein stability index,ubr1∆,3.2 ± 0.15
QHDSSANEDEEEQLDAL [CSN12],protein stability index,doa10∆,3.55 ± 0.25
same,protein stability index,pdr5∆,2.75 ± 0.21
same,protein stability index,ubr1∆,3 ± 0.17
GNIKDLPENIILTSLMR [CSN9],protein stability index,doa10∆,2.69 ± 0.1
same,protein stability index,pdr5∆,2.93 ± 0.075
same,protein stability index,san1∆,2.43 ± 0.14
same,protein stability index,ubr1∆,3.03 ± 0.1
NSLAVRGKDCTVVISQK [SCL1],protein stability index,doa10∆,2.64 ± 0.075
same,protein stability index,pdr5∆,2.9 ± 0.062
same,protein stability index,san1∆,2.94 ± 0.051
same,protein stability index,ubr1∆,2.72 ± 0.045
QKKNFLFKPLNKTLTLD [ARP7],protein stability index,doa10∆,2.83 ± 0.093
same,protein stability index,pdr5∆,2.45 ± 0.14
same,protein stability index,san1∆,2.08 ± 0.25
same,protein stability index,ubr1∆,1.89 ± 0.26
NSAARNIQHLLYGKRFF [PRE7],protein stability index,doa10∆,2.13 ± 0.08
same,protein stability index,pdr5∆,2.72 ± 0.084
same,protein stability index,san1∆,2.12 ± 0.1
same,protein stability index,ubr1∆,2.45 ± 0.076
KIYINLALGSHNKLIQF [SSN2],protein stability index,doa10∆,2.57 ± 0.17
same,protein stability index,pdr5∆,1.83 ± 0.078
same,protein stability index,san1∆,2.13 ± 0.11
same,protein stability index,ubr1∆,2.22 ± 0.071
KIFQTTPEKDLFIGLFT [YCS4],protein stability index,doa10∆,2.1 ± 0.088
same,protein stability index,pdr5∆,1.84 ± 0.055
same,protein stability index,san1∆,2.41 ± 0.11
same,protein stability index,ubr1∆,2.58 ± 0.066
VQLLSKSHNAHVRCGTA [RPN2],protein stability index,doa10∆,1.44 ± 0.071
same,protein stability index,pdr5∆,1.5 ± 0.042
same,protein stability index,san1∆,1.57 ± 0.08
same,protein stability index,ubr1∆,1.72 ± 0.048
LSEEETLLVIRRLHKVL [SNF2],protein stability index,doa10∆,1.7 ± 0.086
same,protein stability index,pdr5∆,2.22 ± 0.07
same,protein stability index,san1∆,1.84 ± 0.11
same,protein stability index,ubr1∆,2.21 ± 0.053
FNVHEVPRAALEERFDP [YMR129W/POM152],protein stability index,doa10∆,3.13 ± 0.067
same,protein stability index,pdr5∆,3.15 ± 0.078
same,protein stability index,san1∆,3.16 ± 0.069
same,protein stability index,ubr1∆,3.03 ± 0.079
RGKDGKLHVAAKLPGHK [YGL100W/SEH1],protein stability index,doa10∆,3.31 ± 0.14
same,protein stability index,pdr5∆,3.13 ± 0.14
same,protein stability index,ubr1∆,2.7 ± 0.16
NAEVVAGNIKCRNDAVN [BRR2],protein stability index,doa10∆,2.77 ± 0.11
same,protein stability index,pdr5∆,3.67 ± 0.16
same,protein stability index,san1∆,3.05 ± 0.087
same,protein stability index,ubr1∆,2.86 ± 0.14
EAGASAELDDCRGVSEN [RPO21],protein stability index,doa10∆,3.47 ± 0.11
same,protein stability index,pdr5∆,3.54 ± 0.15
same,protein stability index,san1∆,3.26 ± 0.08
same,protein stability index,ubr1∆,3.6 ± 0.13
ISAEDRADTDLAMNDDD [SNF2],protein stability index,doa10∆,3.44 ± 0.23
same,protein stability index,pdr5∆,3.45 ± 0.14
same,protein stability index,san1∆,3.35 ± 0.069
same,protein stability index,ubr1∆,3.32 ± 0.085
GIRVQDSVILASSKAVT [PRE1],protein stability index,doa10∆,2.54 ± 0.065
same,protein stability index,pdr5∆,2.73 ± 0.076
same,protein stability index,san1∆,2.46 ± 0.068
same,protein stability index,ubr1∆,2.38 ± 0.05
RVERSSRSTDNFHNSKK [RRI1],protein stability index,doa10∆,3.31 ± 0.076
same,protein stability index,pdr5∆,3.25 ± 0.078
same,protein stability index,san1∆,2.99 ± 0.082
same,protein stability index,ubr1∆,3.08 ± 0.057
LLSKIMLNLIDDVKNIL [RPN6],protein stability index,doa10∆,2.2 ± 0.13
same,protein stability index,pdr5∆,1.4 ± 0.1
same,protein stability index,san1∆,1.25 ± 0.13
same,protein stability index,ubr1∆,1.22 ± 0.08
NKIMTNQINSFWSLHSS [NUT1],protein stability index,doa10∆,1.91 ± 0.2
same,protein stability index,pdr5∆,2.23 ± 0.15
same,protein stability index,san1∆,2.06 ± 0.11
same,protein stability index,ubr1∆,3.31 ± 0.1
FNFGGKSDTVTSASQPF [YOR098C/NUP1],protein stability index,doa10∆,2.21 ± 0.056
same,protein stability index,pdr5∆,2.03 ± 0.056
same,protein stability index,san1∆,2.07 ± 0.071
same,protein stability index,ubr1∆,1.93 ± 0.049
ILMQQQMMARMAQTATQ [SRP54],protein stability index,doa10∆,2.34 ± 0.14
same,protein stability index,pdr5∆,2.22 ± 0.1
same,protein stability index,san1∆,2.08 ± 0.12
same,protein stability index,ubr1∆,2.63 ± 0.1
HGKPTKGSSLASAASEA [SSN8],protein stability index,doa10∆,1.95 ± 0.08
same,protein stability index,pdr5∆,2.42 ± 0.068
same,protein stability index,san1∆,2.19 ± 0.088
same,protein stability index,ubr1∆,2.73 ± 0.032
KGTNDEGTSISVHLIEC [YCS4],protein stability index,doa10∆,2.78 ± 0.094
same,protein stability index,pdr5∆,2.73 ± 0.071
same,protein stability index,san1∆,2.69 ± 0.11
same,protein stability index,ubr1∆,3.2 ± 0.059
